The text below walks through data of the supplement of paper PMC9732359.

This series in a line: protein stability index of a GFP-peptide fusion (yeast GPS) (PSI 1-4); higher = more stable; sorted into four equal gates, so the index is relative within each strain. In a few lines:
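Tiled 17-residue peptides from yeast proteins were fused downstream of GFP on a plasmid that also expresses Cherry, and the pooled library was carried in yeast. Mid-log cultures grown in leucine-free medium were sorted into four equal gates by GFP/Cherry fluorescence ratio. Plasmids from each gate were PCR-amplified and Illumina-sequenced, and reads were assigned to strains by barcodes. Each peptide's protein stability index is the sum, over gates, of the gate's read frequency multiplied by its gate number.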

± gives the uncertainty stated by the source.

In the case of KKAAEEAGVTDVKVSIS [FAS2], the protein stability index was 1.44 ± 0.09 (doa10∆), 1.66 ± 0.08 (pdr5∆), 2.23 ± 0.24 (san1∆) and 1.18 ± 0.1 (ubr1∆).
In the case of VVAKKDFNQAKHEEIDT [RPS10A], the protein stability index by setting is: (doa10∆) 3.51 ± 0.2; (pdr5∆) 2.54 ± 0.19; (san1∆) 3.22 ± 0.099; (ubr1∆) 3.09 ± 0.081.
For LQEKNSGNLPLNELSAK [RPN13], the protein stability index runs as follows: (doa10∆) 3.19 ± 0.072; (pdr5∆) 3.2 ± 0.065; (san1∆) 3.08 ± 0.038; (ubr1∆) 3.17 ± 0.063.
Taken in the same sequence, the figures for TFDGIRMSSEEVNSLLL [GRR1] were 3.03 ± 0.099, 3.04 ± 0.15, 3.14 ± 0.15 and 2.92 ± 0.074.
Regarding EAEMAYVKAVSDKAQLN [SMC4], the protein stability index came to 2.62 ± 0.062 (doa10∆), 2.33 ± 0.052 (pdr5∆), 2.2 ± 0.072 (san1∆) and 2.26 ± 0.05 (ubr1∆).
With KKSKLISLYLLNLLSQN [RPN12], the protein stability index came out at 1.31 ± 0.057 (doa10∆), 1.97 ± 0.062 (pdr5∆), 1.26 ± 0.094 (san1∆) and 1.84 ± 0.046 (ubr1∆).
On the same counts, the results for DTLDGDLMDDMSDISDL [RPN3] are 2.71 ± 0.18, 2.69 ± 0.076, 2.11 ± 0.13 and 2.14 ± 0.1.
On to NVGLPILKSLKNRSNRK [YOR098C/NUP1], for which the protein stability index was determined as 3.07 ± 0.075 (doa10∆), 3.1 ± 0.078 (pdr5∆), 2.88 ± 0.064 (san1∆) and 3.11 ± 0.049 (ubr1∆).
With HHSWSQSDLEIITQYVF [ARP9], the protein stability index reads like this: (doa10∆) 2.29 ± 0.051; (pdr5∆) 2.82 ± 0.056; (san1∆) 2.73 ± 0.056; (ubr1∆) 3.08 ± 0.044.
On the same counts, the results for IDDENITKLNKEIRAFD [SRB4] are 3.44 ± 0.066, 3.33 ± 0.063, 3.27 ± 0.043 and 3.38 ± 0.056.
With ASLALAHVFVGTCNGDI [RPN1], the protein stability index is, setting by setting: (doa10∆) 2.48 ± 0.059; (pdr5∆) 2.61 ± 0.054; (san1∆) 2.43 ± 0.077; (ubr1∆) 2.58 ± 0.074.
Taken in the same sequence, the figures for KSICFENCLNNDPEILK [SWI1] were 2.2 ± 0.087, 2.69 ± 0.056, 2.83 ± 0.068 and 2.7 ± 0.074.
Take FTKKPVTPNDKIPEREE [SIR4]: the protein stability index reads like this: (doa10∆) 3.05 ± 0.13; (pdr5∆) 2.95 ± 0.087; (san1∆) 3.27 ± 0.13; (ubr1∆) 3.1 ± 0.063.
Taken in the same sequence, the figures for IELTSYESIATYASVTG [RPN7] were 1.1 ± 0.077, 1.31 ± 0.068, 1.11 ± 0.22 and 1.15 ± 0.12.
FLLEKAGERKIPHDLNF [TAF14]: the protein stability index by setting is: (doa10∆) 2.43 ± 0.067; (pdr5∆) 2.71 ± 0.062; (san1∆) 2.61 ± 0.051; (ubr1∆) 2.47 ± 0.046.
As to KNDDNSCRNPEHTDVID [YIL149C/MLP2], the protein stability index by setting is: (doa10∆) 3.03 ± 0.15; (pdr5∆) 2.75 ± 0.099; (san1∆) 2.98 ± 0.093; (ubr1∆) 2.97 ± 0.086.
As for CVHMVYEYAEHDLLQII [SSN3], the protein stability index runs as follows: (doa10∆) 2.26 ± 0.086; (pdr5∆) 2.21 ± 0.089; (san1∆) 2.12 ± 0.11; (ubr1∆) 2.48 ± 0.08.
Take NSLFYLKWSACTSLMDI [IRR1]: the protein stability index was 1.68 ± 0.073 (doa10∆), 2.31 ± 0.047 (pdr5∆), 1.61 ± 0.13 (san1∆) and 1.83 ± 0.042 (ubr1∆).
For the sequence GYLFKVSALDKCIKYSE [ECM29], the protein stability index turned out to be 3.08 ± 0.13 (doa10∆), 2.11 ± 0.09 (pdr5∆), 1.95 ± 0.11 (san1∆) and 2 ± 0.074 (ubr1∆).
Turning to EEITCALDYLIPPPMPK [MED7], the protein stability index (doa10∆) was 1.86 ± 0.083, the protein stability index (pdr5∆) is 2.73 ± 0.21, the protein stability index (san1∆) was determined as 2.06 ± 0.16 and the protein stability index (ubr1∆) worked out at 2.28 ± 0.071.
As to CIFGDAFDVDRAKSCGV [RPL1A], the protein stability index is, setting by setting: (doa10∆) 3.01 ± 0.073; (pdr5∆) 2.75 ± 0.084; (san1∆) 2.57 ± 0.11; (ubr1∆) 2.59 ± 0.081.
Regarding PKKFGGKGARSRFQKSY [RPS16A], the protein stability index by setting is: (doa10∆) 3.22 ± 0.12; (pdr5∆) 3.31 ± 0.11; (san1∆) 3.31 ± 0.13; (ubr1∆) 2.93 ± 0.1.
Take NIRGNTIRQIILPDSLN [SMD1]: the protein stability index reads like this: (doa10∆) 2.87 ± 0.15; (pdr5∆) 2.94 ± 0.12; (san1∆) 2.76 ± 0.16; (ubr1∆) 3.27 ± 0.099.
TPAMIPYPGSPMHSIMP [DSN1]: the protein stability index runs as follows: (doa10∆) 2.8 ± 0.037; (pdr5∆) 2.67 ± 0.034; (san1∆) 2.88 ± 0.036; (ubr1∆) 2.846 ± 0.025.
Taken in the same sequence, the figures for PTIEYVQCPTVIKLAKY [ARP9] were 1.97 ± 0.047, 1.87 ± 0.034, 1.75 ± 0.068 and 1.98 ± 0.032.
